Legend:
[1] = biological target: T1, GITR on GITR/NFkB-luciferase reporter Jurkat cells (UniProt Q9Y5U5 26-241, limits assumed); experiment: cell-based or functional assay
T1 sequence (looked up): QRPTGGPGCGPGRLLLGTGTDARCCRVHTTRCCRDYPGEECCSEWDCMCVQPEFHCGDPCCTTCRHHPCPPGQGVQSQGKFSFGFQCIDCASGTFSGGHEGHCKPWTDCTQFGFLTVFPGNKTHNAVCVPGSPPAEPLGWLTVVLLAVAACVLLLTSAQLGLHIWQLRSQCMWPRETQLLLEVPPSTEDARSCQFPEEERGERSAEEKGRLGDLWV

[2] = biological target: T2, human GITR on HEK 293 cells (human, UniProt Q9Y5U5 26-241); experiment: flow cytometry on HEK 293 cells expressing human GITR
T2 construct: Bought cell line; also called GITR-expressing 293 cells; HEK 293 cells expressing human GITR (CrownBio, #C2011)
T2 sequence: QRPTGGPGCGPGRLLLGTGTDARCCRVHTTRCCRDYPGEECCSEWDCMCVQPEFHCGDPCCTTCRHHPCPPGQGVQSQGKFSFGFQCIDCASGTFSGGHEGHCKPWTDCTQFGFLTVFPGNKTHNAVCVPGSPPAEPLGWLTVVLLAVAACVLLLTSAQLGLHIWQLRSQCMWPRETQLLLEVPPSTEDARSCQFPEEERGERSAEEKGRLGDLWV
Procedure: Cells were washed twice, then stained for 30 minutes at 4° C. with 5 ug/mL mouse anti-human kappa-ALEXA FLUOR® 647 secondary antibody (Southern Biotech #9230-31) diluted in FACS buffer. Cells were washed twice, resuspended in FACS Stain Buffer, and signal was acquired by flow cytometry.

B1: GITR-Mab-3 IgM/J* (antibody, not shown: a dimerising Fc or GST; large carriers)
heavy: QVQLVQSGAEVKKPGASVKVSCKASGYTFTSYDINWVRQAPGQGLEWMGWISGYNGNTNYAQKFQGRVTMTRDTSTSTVYMELSSLRSEDTAVYYCARSHEYYYYYGMDVWGQGTLVTVSS
light: EIVMTQSPATLSVSPGERATLSCRASQSVSSSYLAWYQQKPGQAPRLLIYGASTRATGIPARFSGSGSGTEFTLTISSLQSEDFAVYYCQQYYTTPFTFGPGTKVDIK
chain: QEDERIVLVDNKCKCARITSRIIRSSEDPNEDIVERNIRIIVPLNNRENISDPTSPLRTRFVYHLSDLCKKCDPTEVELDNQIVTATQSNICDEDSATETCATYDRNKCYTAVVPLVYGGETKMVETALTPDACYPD
For B1, the “EC50” value [1] was 5 µg/mL and the “Max Fold activation” value [1] was 1.3 fold.

B2: GITR-Mab-14 IgM/J* (antibody, not shown: a dimerising Fc or GST; large carriers)
heavy: EVQLLESGGGLVKPGGSLRLSCAASGFRFSVYWMSWVRQAPGKGLEWVSGISGSGGTTYYADSVKGRFTISRDDSKNTLYLQMNSLKTEDTAVYYCARVRRDGYNYNFDYWGQGTLVTVSS
light: DIQMTQSPSSLSASVGDRVTITCQASQDISNYLNWYQQKPGKAPKLLIFDASSLEAGVPSRFSGSGSGTDFTLTISSLQPEDFATYYCQQANSFPPTFGQGTEVEIK
chain: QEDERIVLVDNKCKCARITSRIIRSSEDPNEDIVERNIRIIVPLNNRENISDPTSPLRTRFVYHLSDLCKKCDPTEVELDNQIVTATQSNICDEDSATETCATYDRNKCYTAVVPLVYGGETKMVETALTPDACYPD
For B2, the “EC50” value [1] was 0.34 µg/mL and the “Max Fold activation” value [1] was 1.6 fold.

B3: GITR-Mab-6 IgM/J* (antibody)
heavy: QVQLVQSGAEVKKPGASVKVSCKASGYAFTAYYLHWVRQAPGQGLEWMGWMNPNSGNTGYAQKFQGRVTMTRDTSTSTVYMELSSLRSEDTAVYYCAREGWGYYDGGFDPWGQGTLVTVSS
light: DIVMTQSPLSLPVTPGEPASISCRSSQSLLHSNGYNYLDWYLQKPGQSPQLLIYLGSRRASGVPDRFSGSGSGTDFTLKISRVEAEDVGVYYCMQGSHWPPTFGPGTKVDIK
chain: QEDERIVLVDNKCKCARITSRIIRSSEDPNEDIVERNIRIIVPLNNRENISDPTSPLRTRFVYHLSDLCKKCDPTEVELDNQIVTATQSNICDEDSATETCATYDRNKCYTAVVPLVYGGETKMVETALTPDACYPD
notes: IgM with variant J-chain J* (Y102A); not shown: IgM heavy chain constant region of proprietary vector; light chain constant region of proprietary vector (detected with anti-human kapp)
B3: binds [2].
